One test has as its target T1, ME2 (malic enzyme 2) (Homo sapiens, UniProt P23368).
T1 construct: for the malate assay purified from overexpressing 293T cells treated with cisplatin
The experiment in a line: […]-pyruvate binding to Flag-bead-bound ME2, scintillation counting.

Test [1] addresses T2, ME2-flag recombinant protein (WT) (UniProt P23368 19-584).
T2 construct: malic enzyme 2 (ME2), wild type; If it was made in mammalian cells, the mitochondrial transit peptide is probably removed (surmise); also called purified ME2-flag protein; ME2-flag WT; not shown: Flag, C-terminal, kept
The experiment in a line: pull-down; ME2-flag recombinant protein bound to Flag beads, incubated with recombinant ACAT1 or SIRT4 with or without pyruvate (increasing concentrations) for 20 min at room temperature, unbound protein washed out, western blot. The following applies: both partners purified.

The target in test [2] is T3, ME2-flag R511A recombinant protein (UniProt P23368 19-584, R511A).
T3 construct: Same construct as m7, with the mutation; also called ME2 R511A; source: recombinant, purified; not shown: Flag, C-terminal, kept
T3 sequence (P23368 19-584 R511A): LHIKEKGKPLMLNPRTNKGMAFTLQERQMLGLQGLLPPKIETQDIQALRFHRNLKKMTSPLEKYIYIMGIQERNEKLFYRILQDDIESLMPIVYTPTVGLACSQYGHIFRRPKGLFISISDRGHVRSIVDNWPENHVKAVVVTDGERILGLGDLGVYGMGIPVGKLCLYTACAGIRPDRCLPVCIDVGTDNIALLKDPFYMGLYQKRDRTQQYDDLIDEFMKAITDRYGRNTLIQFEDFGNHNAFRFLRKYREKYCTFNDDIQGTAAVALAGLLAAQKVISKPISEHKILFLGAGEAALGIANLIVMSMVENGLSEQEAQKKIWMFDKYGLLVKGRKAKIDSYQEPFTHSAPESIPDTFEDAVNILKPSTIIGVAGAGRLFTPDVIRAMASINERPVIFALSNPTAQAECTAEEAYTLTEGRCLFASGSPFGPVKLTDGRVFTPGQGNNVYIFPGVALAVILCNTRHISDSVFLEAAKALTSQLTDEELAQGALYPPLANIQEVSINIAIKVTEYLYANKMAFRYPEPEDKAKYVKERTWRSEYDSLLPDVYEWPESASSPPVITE
Described as above. The settings on record: both partners purified.

T2 sequence (P23368 19-584): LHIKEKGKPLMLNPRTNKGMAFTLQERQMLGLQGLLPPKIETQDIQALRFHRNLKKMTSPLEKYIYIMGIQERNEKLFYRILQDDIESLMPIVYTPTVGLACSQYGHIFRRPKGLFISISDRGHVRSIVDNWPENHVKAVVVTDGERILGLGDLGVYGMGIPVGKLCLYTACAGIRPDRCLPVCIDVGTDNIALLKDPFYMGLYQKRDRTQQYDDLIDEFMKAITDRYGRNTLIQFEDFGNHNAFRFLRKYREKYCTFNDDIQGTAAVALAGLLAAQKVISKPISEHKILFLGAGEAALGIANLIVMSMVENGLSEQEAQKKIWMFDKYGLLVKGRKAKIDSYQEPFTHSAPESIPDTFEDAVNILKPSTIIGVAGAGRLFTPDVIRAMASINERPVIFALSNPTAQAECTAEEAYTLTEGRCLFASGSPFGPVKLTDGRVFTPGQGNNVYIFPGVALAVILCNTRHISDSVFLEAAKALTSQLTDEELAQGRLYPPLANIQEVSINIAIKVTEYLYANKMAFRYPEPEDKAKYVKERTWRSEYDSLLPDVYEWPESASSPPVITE
T1 sequence (P23368 19-584): as above

At ME2 (malic enzyme 2), `CC(=O)C(=O)O` [pyruvate] came in with a Kd of roughly 6.17 µM.

B1: recombinant ACAT1 (enzyme, UniProt P24752 34-427, looked up)
chain: VSKPTLKEVVIVSATRTPIGSFLGSLSLLPATKLGSIAIQGAIEKAGIPKEEVKEAYMGNVLQGGEGQAPTRQAVLGAGLPISTPCTTINKVCASGMKAIMMASQSLMCGHQDVMVAGGMESMSNVPYVMNRGSTPYGGVKLEDLIVKDGLTDVYNKIHMGSCAENTAKKLNIARNEQDAYAINSYTRSKAAWEAGKFGNEVIPVTVTVKGQPDVVVKEDEEYKRVDFSKVPKLKTVFQKENGTVTAANASTLNDGAAALVLMTADAAKRLNVTPLARIVAFADAAVEPIDFPIAPVYAASMVLKDVGLKKEDIAMWEVNEAFSLVVLANIKMLEIDPQKVNINGGAVSLGHPIGMSGARIVGHLTHALKQGEYGLASICNGGGGASAMLIQKL
notes: acetyl-CoA acetyltransferase 1 (ACAT1), recombinant protein; also called purified, recombinant ACAT1; source: recombinant, purified
As for B1, the binding result in test [1] and in test [2] was “binds” throughout.

B2: recombinant SIRT4 (enzyme, UniProt Q9Y6E7 29-314, looked up)
chain: IGLFVPASPPLDPEKVKELQRFITLSKRLLVMTGAGISTESGIPDYRSEKVGLYARTDRRPIQHGDFVRSAPIRQRYWARNFVGWPQFSSHQPNPAHWALSTWEKLGKLYWLVTQNVDALHTKAGSRRLTELHGCMDRVLCLDCGEQTPRGVLQERFQVLNPTWSAEAHGLAPDGDVFLSEEQVRSFQVPTCVQCGGHLKPDVVFFGDTVNPDKVDFVHKRVKEADSLLVVGSSLQVYSGYRFILTAWEKKLPIAILNIGPTRSDDLACLKLNSRCGELLPLIDPC
notes: SIRT4, recombinant protein; also called purified, recombinant SIRT4; source: recombinant, purified
Regarding B2, the binding result in test [1] and in test [2] was “binds” throughout.
